According to patent publication US20110300138A1 (published 2011):
Read-outs that look alike come from different tables or passages of the source.

How the values were obtained:
Assay in all cases: cell-based or functional assay
[1] = molecular target: TSHR with Asp43 mutated to Ala, expressed in CHO cells (human) (UniProt P16473)
[2] = molecular target: TSHR with Gln235 mutated to Ala expressed in CHO cells (human) (UniProt P16473)
[3] = molecular target: TSHR with Lys129 mutated to Ala, expressed in CHO cells (human) (UniProt P16473)
[4] = molecular target: wild type human TSHR (full length) expressed in CHO cells (human) (UniProt P16473)
[5] = molecular target: TSHR with Arg255 mutated to Asp expressed in CHO cells (human) (UniProt P16473)
[6] = molecular target: wild type TSHR expressed in CHO cells (human) (UniProt P16473)
[7] = molecular target: TSHR with His105 mutated to Ala (expressed in CHO cells) (human) (UniProt P16473)
[8] = molecular target: wild type TSHR expressed in CHO cells (human) (UniProt P16473); remark: listed apart in the source
[9] = molecular target: TSHR with Lys209 mutated to Ala (human) (UniProt P16473)
wild type TSHR (human) = wild type TSHR (human) (UniProt P16473)

TSH (ligand)
% inhibition of TSH stimulation, TSH (2) run at the end of assay, mutated TSHR [1]: 0%
Cyclic AMP produced (pmol/mL), TSH (2) 3 ng/mL run at the end of assay, mutated TSHR [1]: 60.3 pmol/mL
Mutated/Wild type (%) of cyclic AMP produced, TSH 0.01 ng/mL [1]: 100%
Mutated/Wild type (%) of cyclic AMP produced, TSH 0.03 ng/mL [1]: 113%
Mutated/Wild type (%) of cyclic AMP produced, TSH 0.1 ng/mL [1]: 119%
Mutated/Wild type (%) of cyclic AMP produced, TSH 0.3 ng/mL [1]: 86%
Mutated/Wild type (%) of cyclic AMP produced, TSH 1 ng/mL [1]: 86%
Mutated/wild type (%) of cyclic AMP produced; TSH 3 ng/mL [1]: 88%
Mutated/wild type (%), TSH (2) 3 ng/mL run at the end of assay [1]: 65%
Cyclic AMP produced, TSH 0.01 ng/mL, Experiment 1 [2]: 1.75 pmol/mL
Cyclic AMP produced, TSH 0.01 ng/mL, Experiment 2 [2]: 3.42 pmol/mL
Cyclic AMP produced, TSH 0.03 ng/mL, Experiment 1 [2]: 2.89 pmol/mL
Cyclic AMP produced, TSH 0.03 ng/mL, Experiment 2 [2]: 4.55 pmol/mL
Cyclic AMP produced, TSH 0.1 ng/mL, Experiment 1 [2]: 5.97 pmol/mL
Cyclic AMP produced, TSH 0.1 ng/mL, Experiment 2 [2]: 7.77 pmol/mL
Cyclic AMP produced, TSH 0.3 ng/mL, Experiment 1 [2]: 17.6 pmol/mL
Cyclic AMP produced, TSH 0.3 ng/mL, Experiment 2 [2]: 17.1 pmol/mL
Cyclic AMP produced, TSH 1 ng/mL, Experiment 1 [2]: 44.2 pmol/mL
Cyclic AMP produced, TSH 1 ng/mL, Experiment 2 [2]: 31.7 pmol/mL
Cyclic AMP produced; TSH 3 ng/mL; Experiment 1 [2]: 46.6 pmol/mL
Cyclic AMP produced; TSH 3 ng/mL; Experiment 2 [2]: 37.1 pmol/mL
Experiment 1: % inhibition of TSH stimulation; TSH (2), run at the end of assay [2]: 13%
Experiment 1: Mutated/wild type (%) of cyclic AMP produced; TSH 3 ng/mL [2]: 70%
Experiment 1: Mutated/wild type (%) of cyclic AMP produced; TSH (2) 3 ng/mL, run at the end of assay [2]: 61%
Experiment 2: % inhibition of TSH stimulation; TSH (2), run at the end of assay [2]: 3%
Experiment 2: Mutated/wild type (%) of cyclic AMP produced; TSH 3 ng/mL [2]: 100%
Experiment 2: Mutated/wild type (%) of cyclic AMP produced; TSH (2) 3 ng/mL, run at the end of assay [2]: 71%
Mutated/Wild type (%) of cyclic AMP produced, TSH 0.01 ng/mL, Experiment 1 [2]: 161%
Mutated/Wild type (%) of cyclic AMP produced, TSH 0.01 ng/mL, Experiment 2 [2]: 177%
Mutated/Wild type (%) of cyclic AMP produced, TSH 0.03 ng/mL, Experiment 1 [2]: 125%
Mutated/Wild type (%) of cyclic AMP produced, TSH 0.03 ng/mL, Experiment 2 [2]: 165%
Mutated/Wild type (%) of cyclic AMP produced, TSH 0.1 ng/mL, Experiment 1 [2]: 91%
Mutated/Wild type (%) of cyclic AMP produced, TSH 0.1 ng/mL, Experiment 2 [2]: 107%
Mutated/Wild type (%) of cyclic AMP produced, TSH 0.3 ng/mL, Experiment 1 [2]: 67%
Mutated/Wild type (%) of cyclic AMP produced, TSH 0.3 ng/mL, Experiment 2 [2]: 68%
Mutated/Wild type (%) of cyclic AMP produced, TSH 1 ng/mL, Experiment 1 [2]: 65%
Mutated/Wild type (%) of cyclic AMP produced, TSH 1 ng/mL, Experiment 2 [2]: 62%
Mutated/wild type (%) of cyclic AMP produced; TSH 3 ng/mL; Experiment 1 [2]: 56%
Mutated/wild type (%) of cyclic AMP produced; TSH 3 ng/mL; Experiment 2 [2]: 53%
% inhibition of TSH stimulation; TSH (2) control [3]: 3%
Cyclic AMP produced; TSH 3 ng/mL [3]: 49.2 pmol/mL
Cyclic AMP produced; TSH (2) [3]: 47.9 pmol/mL
Mutated/wild type (%) of cyclic AMP produced; TSH 3 ng/mL [3]: 98%
Mutated/wild type (%) of cyclic AMP produced; TSH (2) [3]: 90%
% inhibition of TSH stimulation, TSH (2) run at the end of assay, wild type TSHR [4]: 2%
Cyclic AMP produced (pmol/mL), TSH 0.01 ng/mL, wild type TSHR [4]: 2.03 pmol/mL
Cyclic AMP produced (pmol/mL), TSH 0.03 ng/mL, wild type TSHR [4]: 3.65 pmol/mL
Cyclic AMP produced (pmol/mL), TSH 0.1 ng/mL, wild type TSHR [4]: 9.65 pmol/mL
Cyclic AMP produced (pmol/mL), TSH 0.3 ng/mL, wild type TSHR [4]: 31.4 pmol/mL
Cyclic AMP produced (pmol/mL), TSH 1 ng/mL, wild type TSHR [4]: 61 pmol/mL
Cyclic AMP produced (pmol/mL), TSH 3 ng/mL alone, wild type TSHR [4]: 93.9 pmol/mL
Cyclic AMP produced (pmol/mL), TSH 3 ng/mL, wild type TSHR [4]: 82.6 pmol/mL
Cyclic AMP produced (pmol/mL), TSH (2) 3 ng/mL run at the end of assay, wild type TSHR [4]: 92.2 pmol/mL
Cyclic AMP produced, TSH 0.01 ng/mL [4]: 4 pmol/mL
Cyclic AMP produced, TSH 0.01 ng/mL, Experiment 1 [4]: 1.09 pmol/mL
Cyclic AMP produced, TSH 0.01 ng/mL, Experiment 2 [4]: 1.93 pmol/mL
Cyclic AMP produced, TSH 0.03 ng/mL [4]: 6.66 pmol/mL
Cyclic AMP produced, TSH 0.03 ng/mL, Experiment 1 [4]: 2.31 pmol/mL
Cyclic AMP produced, TSH 0.03 ng/mL, Experiment 2 [4]: 2.75 pmol/mL
Cyclic AMP produced, TSH 0.1 ng/mL [4]: 19.7 pmol/mL
Cyclic AMP produced, TSH 0.1 ng/mL, Experiment 1 [4]: 6.54 pmol/mL
Cyclic AMP produced, TSH 0.1 ng/mL, Experiment 2 [4]: 7.25 pmol/mL
Cyclic AMP produced, TSH 0.3 ng/mL [4]: 45 pmol/mL
Cyclic AMP produced, TSH 0.3 ng/mL, Experiment 1 [4]: 26.5 pmol/mL
Cyclic AMP produced, TSH 0.3 ng/mL, Experiment 2 [4]: 25.3 pmol/mL
Cyclic AMP produced, TSH 1 ng/mL [4]: 75.7 pmol/mL
Cyclic AMP produced, TSH 1 ng/mL, Experiment 1 [4]: 67.7 pmol/mL
Cyclic AMP produced, TSH 1 ng/mL, Experiment 2 [4]: 51 pmol/mL
Cyclic AMP produced, TSH 3 ng/mL, Experiment 1 (mean of duplicate) [4]: 83.5 pmol/mL
Cyclic AMP produced; TSH 3 ng/mL [4]: 87.2 pmol/mL
Cyclic AMP produced; TSH 3 ng/mL; Experiment 2 [4]: 69.7 pmol/mL
% inhibition of TSH stimulation; TSH (2) control [5]: 13%
Cyclic AMP produced; TSH 3 ng/mL alone [5]: 57.8 pmol/mL
Cyclic AMP produced; TSH (2) [5]: 50.2 pmol/mL
Mutated/wild type (%) of cyclic AMP produced; TSH 3 ng/mL alone [5]: 87%
Mutated/wild type (%) of cyclic AMP produced; TSH (2) [5]: 77%
% inhibition of TSH stimulation; TSH (2) control [6]: 2%
Cyclic AMP produced; TSH 3 ng/mL alone [6]: 66.5 pmol/mL
Cyclic AMP produced; TSH (2) [6]: 64.8 pmol/mL
% inhibition of TSH stimulation; TSH (2), run at the end of assay [7]: 11%
Cyclic AMP produced; TSH 3 ng/mL alone [7]: 65.9 pmol/mL
Cyclic AMP produced; TSH (2) 3 ng/mL, run at the end of assay [7]: 58.5 pmol/mL
Mutated/wild type (%) of cyclic AMP produced; TSH 3 ng/mL alone [7]: 70%
Mutated/wild type (%) of cyclic AMP produced; TSH (2) 3 ng/mL, run at the end of assay [7]: 50%
% inhibition of TSH stimulation; TSH (2), run at the end of assay [8]: 0%
Cyclic AMP produced; TSH 3 ng/mL alone [8]: 93.6 pmol/mL
Cyclic AMP produced; TSH (2) 3 ng/mL, run at the end of assay [8]: 117 pmol/mL
% inhibition of TSH stimulation, TSH (2) run at the end of assay, mutated TSHR [9]: 18%
Cyclic AMP produced (pmol/mL), TSH 3 ng/mL, mutated TSHR [9]: 57.9 pmol/mL
Cyclic AMP produced (pmol/mL), TSH (2) 3 ng/mL run at the end of assay, mutated TSHR [9]: 47.7 pmol/mL
Mutated/wild type (%) of cyclic AMP produced; TSH 3 ng/mL [9]: 73%
Mutated/wild type (%) of cyclic AMP produced; TSH (2) 3 ng/mL, run at the end of assay [9]: 52%
Cyclic AMP produced (pmol/mL), TSH 3 ng/mL, wild type TSHR (wild type TSHR (human)): 79 pmol/mL
Cyclic AMP produced (pmol/mL), TSH (2) 3 ng/mL run at the end of assay, wild type TSHR (wild type TSHR (human)): 91.5 pmol/mL
